Molecular target: recombinant HAstV MLB1 capsid spike domain (residues 399-653 of the HAstV MLB1 capsid protein) (Human astrovirus MLB1)
Experiment: SEC

## recombinant HAstV MLB1 capsid spike domain (residues 399-653 of the HAstV MLB1 capsid protein) (domain or fragment)
  stoichiometry N: 2

From publication PMC9722636
